In article doi:10.1101/2024.12.28.630591 (bioRxiv, 2024):

Legend:
Assay in all cases: FRET or BRET
Gα13 K94E/R97E = biological target: T1, Gα13 K94E/R97E (human, UniProt Q14344 1-377, K94E | R97E)
T1 sequence (looked up): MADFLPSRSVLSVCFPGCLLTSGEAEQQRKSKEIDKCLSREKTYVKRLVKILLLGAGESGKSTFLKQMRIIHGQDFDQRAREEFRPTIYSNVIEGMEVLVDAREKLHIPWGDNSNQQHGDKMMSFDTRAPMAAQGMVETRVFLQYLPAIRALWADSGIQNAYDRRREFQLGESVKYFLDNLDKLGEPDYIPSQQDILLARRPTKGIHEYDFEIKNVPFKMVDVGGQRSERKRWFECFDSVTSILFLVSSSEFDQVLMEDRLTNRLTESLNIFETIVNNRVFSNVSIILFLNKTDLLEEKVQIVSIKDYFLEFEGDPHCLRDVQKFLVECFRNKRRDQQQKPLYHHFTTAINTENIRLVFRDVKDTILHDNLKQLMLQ

Gα13 R279A = biological target: T2, Gα13 R279A (human, UniProt Q14344 1-377, R279A)
T2 sequence (looked up): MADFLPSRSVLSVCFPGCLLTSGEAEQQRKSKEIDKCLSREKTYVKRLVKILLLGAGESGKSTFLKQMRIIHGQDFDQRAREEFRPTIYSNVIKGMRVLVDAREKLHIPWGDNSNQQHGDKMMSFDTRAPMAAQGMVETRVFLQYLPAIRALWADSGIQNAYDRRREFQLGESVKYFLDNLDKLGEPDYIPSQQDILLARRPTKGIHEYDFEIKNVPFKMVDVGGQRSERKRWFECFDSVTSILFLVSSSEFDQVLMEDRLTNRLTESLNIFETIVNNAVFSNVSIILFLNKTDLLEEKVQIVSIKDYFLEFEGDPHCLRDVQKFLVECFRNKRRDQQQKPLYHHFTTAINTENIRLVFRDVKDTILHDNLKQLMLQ

Gα13 P202A = biological target: T3, Gα13 P202A (human, UniProt Q14344 1-377, P202A)
T3 sequence (looked up): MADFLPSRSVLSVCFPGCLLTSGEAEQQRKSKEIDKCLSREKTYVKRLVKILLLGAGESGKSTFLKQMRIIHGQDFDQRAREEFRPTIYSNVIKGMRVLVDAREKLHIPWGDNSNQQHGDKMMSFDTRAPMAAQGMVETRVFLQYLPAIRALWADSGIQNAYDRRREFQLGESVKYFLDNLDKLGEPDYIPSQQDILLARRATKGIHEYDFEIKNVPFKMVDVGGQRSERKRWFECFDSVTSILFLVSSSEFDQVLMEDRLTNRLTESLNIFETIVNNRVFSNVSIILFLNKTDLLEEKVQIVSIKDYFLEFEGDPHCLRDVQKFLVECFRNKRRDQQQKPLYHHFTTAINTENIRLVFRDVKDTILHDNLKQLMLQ

Gα13 R201V (human) = Gα13 R201V (human) (UniProt Q14344)
[1] = biological target: Gα13 with mutations in three helical domain residues
Gα13 = biological target: T4, Gα13 (human, UniProt Q14344 1-377)
T4 sequence: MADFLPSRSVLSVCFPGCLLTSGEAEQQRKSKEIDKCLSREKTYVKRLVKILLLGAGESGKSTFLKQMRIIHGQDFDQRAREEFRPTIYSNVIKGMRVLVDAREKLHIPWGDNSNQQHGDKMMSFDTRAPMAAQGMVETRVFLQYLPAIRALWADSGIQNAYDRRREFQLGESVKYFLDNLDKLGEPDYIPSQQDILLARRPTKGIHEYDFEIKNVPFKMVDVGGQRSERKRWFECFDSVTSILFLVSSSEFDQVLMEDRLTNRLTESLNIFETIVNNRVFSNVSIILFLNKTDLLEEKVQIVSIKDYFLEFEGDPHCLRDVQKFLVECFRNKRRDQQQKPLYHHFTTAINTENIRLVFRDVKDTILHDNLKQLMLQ

Gα12 = biological target: T5, Gα12 (human, UniProt Q03113 1-381)
T5 sequence: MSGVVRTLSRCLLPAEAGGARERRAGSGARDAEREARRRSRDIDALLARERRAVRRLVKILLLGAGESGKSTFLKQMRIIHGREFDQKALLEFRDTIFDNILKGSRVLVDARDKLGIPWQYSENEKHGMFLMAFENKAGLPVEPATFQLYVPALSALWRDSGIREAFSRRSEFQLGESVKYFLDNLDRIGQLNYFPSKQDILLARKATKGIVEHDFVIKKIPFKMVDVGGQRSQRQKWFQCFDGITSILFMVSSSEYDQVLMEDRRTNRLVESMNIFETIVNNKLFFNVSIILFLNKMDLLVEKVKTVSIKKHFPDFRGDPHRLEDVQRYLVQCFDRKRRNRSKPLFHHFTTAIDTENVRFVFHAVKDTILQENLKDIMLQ

| Binder | percent reduction of recruitment against WT Gα13 (Gα13 K94E/R97E) [%] | percent reduction of recruitment against WT Gα13 (Gα13 R279A) [%] | percent reduction of recruitment against WT Gα13 (Gα13 P202A) [%] | percent reduction of recruitment against WT Gα13 (Gα13 R201V (human)) [%] | percent reduction of recruitment against WT Gα13 [1] [%] | percent reduction of recruitment against WT p115RhoGEF sensor (Gα13) [%] | percent reduction of recruitment against WT p115RhoGEF sensor (Gα12) [%] |
| --- | --- | --- | --- | --- | --- | --- | --- |
| PDZ RhoGEF-RlucII sensor (domain or fragment, UniProt O15085 281-483, looked up) QGVDQSPKPLIIGPEEDYDPGYFNNESDIIFQDLEKLKSRPAHLGVFLRYIFSQADPSPLLFYLCAEVYQQASPKDSRSLGKDIWNIFLEKNAPLRVKIPEMLQAEIDSRLRNSEDARGVLCEAQEAAMPEIQEQIHDYRTKRTLGLGSLYGENDLLDLDGDPLRERQVAEKQLAALGDILSKYEEDRSAPMDFALNTYMSHA | 71 | 50 | – | – | – | – | – |
| p115 RhoGEF (21-244)-RlucII (domain or fragment, UniProt Q92888 21-244, looked up) VSIIGAEDEDFENELETNSEEQNSQFQSLEQVKRRPAHLMALLQHVALQFEPGPLLCCLHADMLGSLGPKEAKKAFLDFYHSFLEKTAVLRVPVPPNVAFELDRTRADLISEDVQRRFVQEVVQSQQVAVGRQLEDFRSKRLMGMTPWEQELAQLEAWVGRDRASYEARERHVAERLLMHLEEMQHTISTDEEKSAAVVNAIGLYMRHLGVRTKSGDKKSGRNF | 81 | 50 | 37 | 26 | 27 to 81 | – | – |
| p115 RhoGEF (21-244)-RlucII I23F (domain or fragment) VSFIGAEDEDFENELETNSEEQNSQFQSLEQVKRRPAHLMALLQHVALQFEPGPLLCCLHADMLGSLGPKEAKKAFLDFYHSFLEKTAVLRVPVPPNVAFELDRTRADLISEDVQRRFVQEVVQSQQVAVGRQLEDFRSKRLMGMTPWEQELAQLEAWVGRDRASYEARERHVAERLLMHLEEMQHTISTDEEKSAAVVNAIGLYMRHLGVRTKSGDKKSGRNF | – | – | – | – | – | ~50 | ~50 |
| p115 RhoGEF (21-244)-RlucII E27A (domain or fragment) VSIIGAADEDFENELETNSEEQNSQFQSLEQVKRRPAHLMALLQHVALQFEPGPLLCCLHADMLGSLGPKEAKKAFLDFYHSFLEKTAVLRVPVPPNVAFELDRTRADLISEDVQRRFVQEVVQSQQVAVGRQLEDFRSKRLMGMTPWEQELAQLEAWVGRDRASYEARERHVAERLLMHLEEMQHTISTDEEKSAAVVNAIGLYMRHLGVRTKSGDKKSGRNF | – | – | – | – | – | ~50 | ~50 |
| p115 RhoGEF (21-244)-RlucII I23A (domain or fragment) VSAIGAEDEDFENELETNSEEQNSQFQSLEQVKRRPAHLMALLQHVALQFEPGPLLCCLHADMLGSLGPKEAKKAFLDFYHSFLEKTAVLRVPVPPNVAFELDRTRADLISEDVQRRFVQEVVQSQQVAVGRQLEDFRSKRLMGMTPWEQELAQLEAWVGRDRASYEARERHVAERLLMHLEEMQHTISTDEEKSAAVVNAIGLYMRHLGVRTKSGDKKSGRNF | – | – | – | – | – | ~50 | ~50 |
